T1: cynomolgus monkey FcγRIIIaS extracellular domain with C-terminal His-tag (cynomolgus monkey, UniProt Q8SPW2 21-206 at identity 1.00))
T1 construct: also called cyno FcγRIIIaS; FcgRIIIaS
T1 chain: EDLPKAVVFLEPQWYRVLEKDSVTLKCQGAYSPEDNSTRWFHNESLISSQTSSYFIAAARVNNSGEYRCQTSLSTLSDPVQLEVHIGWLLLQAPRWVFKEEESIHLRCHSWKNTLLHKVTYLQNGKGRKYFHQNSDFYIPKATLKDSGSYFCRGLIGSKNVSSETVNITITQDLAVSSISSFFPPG

T2: human FcγRIIaR extracellular domain, His-tagged (human, UniProt P12318 34-217)
T2 construct: also called human FcgRIIaR; FcγRIIa type R
T2 chain: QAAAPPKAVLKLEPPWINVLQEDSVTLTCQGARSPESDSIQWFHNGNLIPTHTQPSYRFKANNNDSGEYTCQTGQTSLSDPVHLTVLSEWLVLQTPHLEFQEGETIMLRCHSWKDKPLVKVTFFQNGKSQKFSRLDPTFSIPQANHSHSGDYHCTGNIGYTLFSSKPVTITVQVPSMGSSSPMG

T3: human FcγRIIaH extracellular domain, His-tagged (human, UniProt P12318 34-217)
T3 construct: also called human FcgRIIaH; FcγRIIa type H
T3 sequence: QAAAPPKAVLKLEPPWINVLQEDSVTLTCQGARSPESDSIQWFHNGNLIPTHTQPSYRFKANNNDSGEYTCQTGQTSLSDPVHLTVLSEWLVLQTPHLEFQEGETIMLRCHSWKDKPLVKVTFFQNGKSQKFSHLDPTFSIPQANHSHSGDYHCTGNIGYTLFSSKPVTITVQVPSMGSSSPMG


Tests used:
[1] = target: T1, cynomolgus monkey FcγRIIIaS …; test: SPR; KD of SG1 / KD of variant
Procedure: The kinetic analysis of interactions between these antibodies and FcγR was carried out using BIACORE® T200 or BIACORE® 4000 (GE Healthcare). HBS-EP+ (GE Healthcare) was used as the running buffer, and the measurement temperature was set to 25° C. […] After the measurement, the antibody captured on the chip was washed off by allowing reaction with 10 mM glycine-HCl, pH1.5 and 25 mM NaOH so that the chip was regenerated and used repeatedly. The sensorgrams obtained as measurement results were analyzed by the 1:1 Langmuir binding model using the BIACORE® Evaluation Software to calculate the binding rate constant ka (L/mol/s) and dissociation rate constant kd (1/s), and the dissociation constant KD (mol/L) was calculated from these values. […] Regarding such interactions, KD values were calculated using the following 1:1 binding model described in BIACORE® T100 Software Handbook BR1006-48 Edition AE.

[2] = target: T4, human FcγRIIIaV extracellular domain, His-tagged (human, UniProt P08637 17-208); test: SPR (Biacore), 25C, FcgR bound per antibody captured
T4 construct: also called human FcgRIIIaV

[3] = target: T2, human FcγRIIaR extracellular domain, …; test: as above
[4] = target: T3, human FcγRIIaH extracellular domain, …; test: as above

T4 sequence (P08637 17-208 F176V): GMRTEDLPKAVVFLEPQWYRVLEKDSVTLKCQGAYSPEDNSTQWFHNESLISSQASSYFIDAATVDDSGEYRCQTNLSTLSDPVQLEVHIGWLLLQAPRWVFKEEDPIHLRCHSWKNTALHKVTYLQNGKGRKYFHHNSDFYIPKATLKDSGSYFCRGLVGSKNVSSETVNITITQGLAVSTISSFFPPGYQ

KD fold (SG1 = 1) [1]	Binding to human FcgRs (parent B3 = 100) [2]	Binding to human FcgRs (parent B3 = 100) [3]	Binding to human FcgRs (parent B3 = 100) [4]	Binder
–	73	123	116	GpH7-B3 A330R / GpL16-k0 (antibody, human IgG1, kappa, also called B3 variant A330R) heavy: not shown light: DIVMTQSPLSLPVTPGEPASISCQASESLVHSNRNTYLHWYLQKPGQSPQLLIYKVSNRFSGVPDRFSGSGSGTDFTLKISRVEAEDVGVYYCSQNTHVPPTFGQGTKVEIERTVAAPSVFIFPPSDEQLKSGTASVVCLLNNFYPREAKVQWKVDNALQSGNSQESVTEQDSKDSTYSLSSTLTLSKADYEKHKVYACEVTHQGLSSPVTKSFNRGEC
–	86	127	121	GpH7-B3 A330K / GpL16-k0 (antibody, human IgG1, kappa, also called B3 variant A330K) heavy: not shown light: DIVMTQSPLSLPVTPGEPASISCQASESLVHSNRNTYLHWYLQKPGQSPQLLIYKVSNRFSGVPDRFSGSGSGTDFTLKISRVEAEDVGVYYCSQNTHVPPTFGQGTKVEIERTVAAPSVFIFPPSDEQLKSGTASVVCLLNNFYPREAKVQWKVDNALQSGNSQESVTEQDSKDSTYSLSSTLTLSKADYEKHKVYACEVTHQGLSSPVTKSFNRGEC
–	87	51	90	GpH7-B3 P271E / GpL16-k0 (antibody, human IgG1, kappa, also called B3 variant P271E) heavy: not shown light: DIVMTQSPLSLPVTPGEPASISCQASESLVHSNRNTYLHWYLQKPGQSPQLLIYKVSNRFSGVPDRFSGSGSGTDFTLKISRVEAEDVGVYYCSQNTHVPPTFGQGTKVEIERTVAAPSVFIFPPSDEQLKSGTASVVCLLNNFYPREAKVQWKVDNALQSGNSQESVTEQDSKDSTYSLSSTLTLSKADYEKHKVYACEVTHQGLSSPVTKSFNRGEC

The next lines start with the binder.

Binder	KD fold (SG1 = 1) [1]	Binding to human FcgRs (parent B3 = 100) [2]	Binding to human FcgRs (parent B3 = 100) [3]	Binding to human FcgRs (parent B3 = 100) [4]
M103205H795-MY142 (heavy chain) with M103202L889-SK1 (light chain) (antibody, human IgG1, kappa, name in EU numbering, Substitutions introduced into M103205H795-SG1; positions in EU numbering) heavy: QVTLKESGPVLVKPTETLTLTCTVSGIDLSHDDISWVRQAPGKGLEWVGIISYAGSTYYASWAKGRLTISKDTSKNQVVLTMTNMDPVDTATYYCARGVPAYSHGGDLWGQGTLVTVSSASTKGPSVFPLAPSSKSTSGGTAALGCLVKDYFPEPVTVSWNSGALTSGVHTFPAVLQSSGLYSLSSVVTVPSSSLGTQTYICNVNHKPSNTKVDKKVEPKSCDKTHTCPPCPAPELLEGPSVFLFPPKPKDTLMISRTPEVTCVVVDVSEEDPEVKFNWYVDGVEVHNAKTKPREEQYNSTYRVVSVLTVLHQDWLNGKEYKCKVSNKALPAPIEKTISKAKGQPREPQVYTLPPSREEMTKNQVSLTCLVKGFYPSDIAVEWESNGQPENNYKTTPMVLDSDGSFFLYSKLTVDKSRWQQGNVFSCSVMHEALHNHYTQKSLSLSP light: DIVMTQSPATLSLSPGERATLSCTSSQSVYHANWLSWFQQKPGQPPKLLIYWASTLAYGVPSRFSGSGSGTDFTLTISSLQPEDAATYYCAGGYGGGRYAFGQGTKVEIKRTVAAPSVFIFPPSDEQLKSGTASVVCLLNNFYPREAKVQWKVDNALQSGNSQESVTEQDSKDSTYSLSSTLTLSKADYEKHKVYACEVTHQGLSSPVTKSFNRGEC	2.57 fold	–	–	–
M103205H795-MY292 (heavy chain) with M103202L889-SK1 (light chain) (antibody, human IgG1, kappa, name in EU numbering, Substitutions introduced into M103205H795-SG1; positions in EU numbering) heavy: QVTLKESGPVLVKPTETLTLTCTVSGIDLSHDDISWVRQAPGKGLEWVGIISYAGSTYYASWAKGRLTISKDTSKNQVVLTMTNMDPVDTATYYCARGVPAYSHGGDLWGQGTLVTVSSASTKGPSVFPLAPSSKSTSGGTAALGCLVKDYFPEPVTVSWNSGALTSGVHTFPAVLQSSGLYSLSSVVTVPSSSLGTQTYICNVNHKPSNTKVDKKVEPKSCDKTHTCPPCPAPELLGYPSVFLFPPKPKDTLMISRTPEVTCVVVDVSDEDPEVKFNWYVDGVEVHNAKTKPREELYNSTYRVVSVLTVLHQDWLNGKEYKCKVSNKALPKPIEKTISKAKGQPREPQVYTLPPSREEMTKNQVSLTCLVKGFYPSDIAVEWESNGQPENNYKTTPMVLDSDGSFFLYSKLTVDKSRWQQGNVFSCSVMHEALHNHYTQKSLSLSP light: DIVMTQSPATLSLSPGERATLSCTSSQSVYHANWLSWFQQKPGQPPKLLIYWASTLAYGVPSRFSGSGSGTDFTLTISSLQPEDAATYYCAGGYGGGRYAFGQGTKVEIKRTVAAPSVFIFPPSDEQLKSGTASVVCLLNNFYPREAKVQWKVDNALQSGNSQESVTEQDSKDSTYSLSSTLTLSKADYEKHKVYACEVTHQGLSSPVTKSFNRGEC	0.09 fold	–	–	–
M103205H795-MY279 (heavy chain) with M103202L889-SK1 (light chain) (antibody, human IgG1, kappa, name in EU numbering, Substitutions introduced into M103205H795-SG1; positions in EU numbering) heavy: QVTLKESGPVLVKPTETLTLTCTVSGIDLSHDDISWVRQAPGKGLEWVGIISYAGSTYYASWAKGRLTISKDTSKNQVVLTMTNMDPVDTATYYCARGVPAYSHGGDLWGQGTLVTVSSASTKGPSVFPLAPSSKSTSGGTAALGCLVKDYFPEPVTVSWNSGALTSGVHTFPAVLQSSGLYSLSSVVTVPSSSLGTQTYICNVNHKPSNTKVDKKVEPKSCDKTHTCPPCPAPELLHGPSVFLFPPKPKDTLMISRTPEVTCVVVDVSDEDPEVKFNWYVDGVEVHNAKTKPREELYNSTYRVVSVLTVLHQDWLNGKEYKCKVSNKALPKPIEKTISKAKGQPREPQVYTLPPSREEMTKNQVSLTCLVKGFYPSDIAVEWESNGQPENNYKTTPPVLDSDGSFFLYSKLTVDKSRWQQGNVFSCSVMHEALHNHYTQKSLSLSP light: DIVMTQSPATLSLSPGERATLSCTSSQSVYHANWLSWFQQKPGQPPKLLIYWASTLAYGVPSRFSGSGSGTDFTLTISSLQPEDAATYYCAGGYGGGRYAFGQGTKVEIKRTVAAPSVFIFPPSDEQLKSGTASVVCLLNNFYPREAKVQWKVDNALQSGNSQESVTEQDSKDSTYSLSSTLTLSKADYEKHKVYACEVTHQGLSSPVTKSFNRGEC	0.15 fold	–	–	–
M103205H795-MY278 (heavy chain) with M103202L889-SK1 (light chain) (antibody, human IgG1, kappa, name in EU numbering, Substitutions introduced into M103205H795-SG1; positions in EU numbering) heavy: QVTLKESGPVLVKPTETLTLTCTVSGIDLSHDDISWVRQAPGKGLEWVGIISYAGSTYYASWAKGRLTISKDTSKNQVVLTMTNMDPVDTATYYCARGVPAYSHGGDLWGQGTLVTVSSASTKGPSVFPLAPSSKSTSGGTAALGCLVKDYFPEPVTVSWNSGALTSGVHTFPAVLQSSGLYSLSSVVTVPSSSLGTQTYICNVNHKPSNTKVDKKVEPKSCDKTHTCPPCPAPELLMGPSVFLFPPKPKDTLMISRTPEVTCVVVDVSDEDPEVKFNWYVDGVEVHNAKTKPREELYNSTYRVVSVLTVLHQDWLNGKEYKCKVSNKALPKPIEKTISKAKGQPREPQVYTLPPSREEMTKNQVSLTCLVKGFYPSDIAVEWESNGQPENNYKTTPPVLDSDGSFFLYSKLTVDKSRWQQGNVFSCSVMHEALHNHYTQKSLSLSP light: DIVMTQSPATLSLSPGERATLSCTSSQSVYHANWLSWFQQKPGQPPKLLIYWASTLAYGVPSRFSGSGSGTDFTLTISSLQPEDAATYYCAGGYGGGRYAFGQGTKVEIKRTVAAPSVFIFPPSDEQLKSGTASVVCLLNNFYPREAKVQWKVDNALQSGNSQESVTEQDSKDSTYSLSSTLTLSKADYEKHKVYACEVTHQGLSSPVTKSFNRGEC	0.49 fold	–	–	–
GpH7-B3 A327N / GpL16-k0 (antibody, human IgG1, kappa, also called B3 variant A327N) heavy: not shown light: DIVMTQSPLSLPVTPGEPASISCQASESLVHSNRNTYLHWYLQKPGQSPQLLIYKVSNRFSGVPDRFSGSGSGTDFTLKISRVEAEDVGVYYCSQNTHVPPTFGQGTKVEIERTVAAPSVFIFPPSDEQLKSGTASVVCLLNNFYPREAKVQWKVDNALQSGNSQESVTEQDSKDSTYSLSSTLTLSKADYEKHKVYACEVTHQGLSSPVTKSFNRGEC	–	32	48	95
